Measurements: US20250381244A1

Molecular target: Neuropilin-2 (human NRP-2), endogenous on U87MG, Jurkat and HUVEC cells (human) (UniProt O60462)
Experiment: cell-based or functional assay

Sequence of Neuropilin-2 (human NRP-2), endogenous on U87MG, Jurkat and HUVEC cells (human) (O60462 21-931 limits assumed): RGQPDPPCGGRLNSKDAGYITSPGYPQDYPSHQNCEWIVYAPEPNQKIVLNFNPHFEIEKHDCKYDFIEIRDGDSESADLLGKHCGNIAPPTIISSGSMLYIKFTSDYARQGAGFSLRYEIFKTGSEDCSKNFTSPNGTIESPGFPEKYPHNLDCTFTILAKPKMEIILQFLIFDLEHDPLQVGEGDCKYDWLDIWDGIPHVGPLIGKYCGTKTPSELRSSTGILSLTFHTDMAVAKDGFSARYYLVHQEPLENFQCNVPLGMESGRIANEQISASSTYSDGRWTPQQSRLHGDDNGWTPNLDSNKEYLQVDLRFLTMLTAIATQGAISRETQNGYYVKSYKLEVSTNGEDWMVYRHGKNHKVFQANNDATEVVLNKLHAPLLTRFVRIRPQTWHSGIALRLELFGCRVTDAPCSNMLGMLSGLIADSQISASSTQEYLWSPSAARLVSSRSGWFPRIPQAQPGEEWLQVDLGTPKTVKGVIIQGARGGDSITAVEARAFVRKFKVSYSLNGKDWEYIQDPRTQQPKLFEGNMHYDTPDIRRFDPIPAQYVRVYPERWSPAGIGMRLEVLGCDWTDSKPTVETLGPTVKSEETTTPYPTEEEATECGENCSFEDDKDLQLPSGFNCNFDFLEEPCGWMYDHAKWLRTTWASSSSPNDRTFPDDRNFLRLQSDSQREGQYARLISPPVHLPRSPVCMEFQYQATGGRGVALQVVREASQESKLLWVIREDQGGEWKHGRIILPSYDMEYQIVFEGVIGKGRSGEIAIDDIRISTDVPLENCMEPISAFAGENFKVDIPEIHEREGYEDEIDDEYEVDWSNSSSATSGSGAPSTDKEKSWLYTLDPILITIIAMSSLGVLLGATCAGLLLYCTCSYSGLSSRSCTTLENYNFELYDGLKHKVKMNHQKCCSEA

- inhibition of DFO-induced VEGF promoter luciferase activity, U87MG cells: 43%
- inhibition of stress fiber formation (phalloidin staining), pcDNA3.1 control vector transfected U87MG cells: 90%
- reduction of hypoxia (1% O2)-induced VEGF promoter luciferase activity, U87MG cells: 44%
- suppression of RhoA activity (rhotekin pulldown), control pcDNA3.1-transfected U87MG cells: 88%
Substance: Human recombinant SEMA3F (full-length, His-Myc-tagged human SEMA3F, secreted by 293T cells and purified) (from UniProt Q13275 20-785) (ligand)
